Experimental data taken from article PMC10470551 (mBio, 2023).

Tests used:
CsTAL = biological target: T1, CsTAL (Clostridium scatologenes, UniProt A0A0E3M5J5); test: coupled assays (PfHBDH or CaHAD), NADH at […] nm; assay type: biochemical; settings: 50 mM Tris-HCl pH 7.5, room temperature
T1 construct: gene CSCA_1088; recombinant, pET-28a(+), N-terminal His6 tag, E. coli BL21(DE3), Ni-NTA
T1 sequence (A0A0E3M5J5 1-281): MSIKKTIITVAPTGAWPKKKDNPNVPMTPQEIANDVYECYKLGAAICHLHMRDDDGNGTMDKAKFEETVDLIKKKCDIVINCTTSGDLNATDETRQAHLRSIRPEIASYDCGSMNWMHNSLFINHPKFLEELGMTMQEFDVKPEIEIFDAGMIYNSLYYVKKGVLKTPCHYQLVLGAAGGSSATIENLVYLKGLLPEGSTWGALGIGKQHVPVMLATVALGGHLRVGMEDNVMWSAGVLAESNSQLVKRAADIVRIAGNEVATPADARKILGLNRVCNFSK

purified protein [1] = substrate: NC(=O)C1=CN([C@@H]2O[C@H](COP(=O)(O)OP(=O)(O)OC[C@H]3O[C@@H](n4cnc5c(N)ncnc54)[C@H](O)[C@@H]3O)[C@@H](O)[C@H]2O)C=CC1; test: purified protein; assay type: biochemical, Clostridium scatologenes; settings: 2.0 mM triacetate (saturating), 50 mM Tris-HCl pH 7.5, room temperature
purified protein [2] = substrate: NC(=O)C1=CN([C@@H]2O[C@H](COP(=O)(O)OP(=O)(O)OC[C@H]3O[C@@H](n4cnc5c(N)ncnc54)[C@H](OP(=O)(O)O)[C@@H]3O)[C@@H](O)[C@H]2O)C=CC1; test: purified protein; assay type: biochemical, Clostridium scatologenes; settings: 50 mM Tris-HCl pH 7.5, room temperature
purified protein [3] = substrate: CC(=O)CC(=O)O; test: purified protein; assay type: biochemical, Clostridium scatologenes; settings: 1.0 mM NADPH, 50 mM Tris-HCl pH 7.5, room temperature
purified protein [4] = substrate: CC(=O)CC(=O)CC(=O)O; test: purified protein; assay type: biochemical, Clostridium scatologenes; settings: 1.0 mM NADPH, 50 mM Tris-HCl pH 7.5, room temperature
purified protein [5] = substrate: O=C1CC(=O)CC(O)C1; test: purified protein; assay type: biochemical, Clostridium scatologenes; settings: 2 mM Mn2+, 50 mM Tris-HCl pH 7.5, room temperature
purified protein [6] = substrate: Oc1cc(O)cc(O)c1; test: purified protein; settings: co-substrate NADPH, 50 mM Tris-HCl pH 7.5, room temperature

CC(=O)CC(=O)CC(=O)O [TAA, 3,5-dioxohexanoate]
coupled assays (PfHBDH or CaHAD), NADH at 340 nm (CsTAL; co-substrate acetyl-CoA): Incubation of CsTAL with triacetate and acetyl-CoA resulted in the formation of acetoacetate and acetoacetyl-CoA

CC(=O)SCCNC(=O)CCNC(=O)[C@H](O)C(C)(C)COP(=O)(O)OP(=O)(O)OC[C@H]1O[C@@H](n2cnc3c(N)ncnc32)[C@H](O)[C@@H]1OP(=O)(O)O [acetyl-CoA]
coupled assays (PfHBDH or CaHAD), NADH at 340 nm (CsTAL; co-substrate triacetate): Incubation of CsTAL with triacetate and acetyl-CoA resulted in the formation of acetoacetate and acetoacetyl-CoA

B1: CsTfD (Clostridium scatologenes) (protein)
chain: MGSIIKNITVFGPGMMGSGIAQVFAGCKDSHVTVFIREKFEYECIDKIKGNLQVMKEKGIVTDADIAELFSRITLTEDMKAATKDADFIIECIPENMELKQNLFKNLEDLCREDTIFATNTSVMSITEISEKSKLKTRIVGTHFWNPPYLIPLVEVVKSDYTSEEVMNKTMELLKTVKKHPIRVNKDVPGFVANRLQHALWREAISIVENGIADAKTVDEAVKYSFGLRLPHLGPIENADMVGTDLTLSIHDYILKHLDKSIEAAPIVRKMVEAGELGFKSGKGFQEWTPEQAKASNESLREYLLKVLYGK
notes: recombinant, codon-optimized synthetic gene, pET-28a(+), N-terminal His6 tag, E. coli BL21(DE3), Ni-NTA
Km (purified protein [1]): 130 µM | Km (purified protein [2]; 2.0 mM triacetate (saturating)): 1700 µM | Km (purified protein [3]): 3690 µM | Km (purified protein [4]): 550 µM

B2: CsDPGC (Clostridium scatologenes) (protein)
chain: MGKKVYVDLTHPFSADIPRWPYFVKPVIDSMHSLAKGGVLTQRIDCVQHTGTHCDAPRHVMETEFNGKRARYTHEMPVDAYMGDAVCLEIKAGRWELITAAHLEDACKRANIKPEELEGMVVCLNTGMHRKFDDSKEYYHYSCGTGVEAGKWFVKYKVKCVAMDMQALDHPLHTAMGNNGATRLNLLGASGKPITEEYKEQFGEEAYAEFDKDEYIRIHGKEAYDAKFGDLEEIGCWGTWEPCHKEMLGHGIVGVENLGGDLDKVSGKRFRFLCLPIRWYMGDGSMVRCVAEIDEDNVNKDVADRVYTYGGF
notes: recombinant, pET-28a(+), N-terminal His6 tag, E. coli BL21(DE3), Ni-NTA; mostly apo as purified, Mn2+ added
Km (purified protein [5]): 190 ± 40 µM | kcat (purified protein [5]): 1.04 ± 0.10 s⁻¹

B3: CsPGR (Clostridium scatologenes) (protein)
chain: MVDKKLINNLFDVKGKVALLTGATGALGKAVAFGYGQAGMKVFITGRSDDKCKALCNELKVDGIECGYSIGDPAIEADVIKIVDDCVAKFGEINVLLTAAGYNHPQPIVEQDLTEWQKIMNSDVQGTWLFCKYVGQKMIDQGKGGKVILVSSARSKMGMAGYTGYCTAKAGIDLMAQSLACEWTAKYGINVNTINPTVFRSDLTEWMFDPESAVYKNFLRRLPIGRLGEPEDFVGPCIFLASSASDFMTGANVATEGGYWAN
notes: recombinant, pET-28a(+), N-terminal His6 tag, E. coli BL21(DE3), Ni-NTA
Km (purified protein [2]; co-substrate phloroglucinol): 210 µM | kcat (purified protein [2]; co-substrate phloroglucinol): 22.4 to 25.3 s⁻¹ | Km (purified protein [6]): 300 µM | kcat (purified protein [6]): 22.4 to 25.3 s⁻¹
